Consider 37 sequences from the supplement of paper PMC10567573.

This data set can be described thus: protein stability index of a GFP-peptide fusion (GPS, HEK-293T) (PSI 1-6); higher = more stable. Particulars: c terminus: a fixed tail appended.

± gives the standard deviation.
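Also: 24-mer peptide tiles fused after GFP, lentivirally expressed, FACS-sorted into six equal bins by GFP/DsRed ratio, decoded by Illumina sequencing, PSI is the read-weighted mean bin number.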

For the sequence QPPEMIGPMRPEQFSDEVEPATPE [GAGE1], the protein stability index is, setting by setting: (treatment: DMSO) 5.03 ± 0.33; (treatment: MLN4924 1 uM, 8 h) 5.17 ± 0.17.

Consider QPQDVDLALDSGASLLHLAVEAGQ [RIPK4], for which the protein stability index runs as follows: (treatment: DMSO) 4.44 ± 0.51; (treatment: MLN4924 1 uM, 8 h) 4.58 ± 0.71.

With QPQQGYIPPMAQPGLPPVPGAPGM [ZNF207], the protein stability index by setting is: (treatment: DMSO) 4.36 ± 0.068; (treatment: MLN4924 1 uM, 8 h) 4.47 ± 0.28.

Take QQCQYRWLRVLNPDLVKGPWTKEE [MYBL2]: the protein stability index was 2.83 ± 0.38 (treatment: DMSO) and 2.9 ± 0.29 (treatment: MLN4924 1 uM, 8 h).

Take QQQEPPLAMGTVSLGQLPLPPIPH [PLAGL1]: the protein stability index is 4.33 ± 0.14 (treatment: DMSO) and 4.35 ± 0.15 (treatment: MLN4924 1 uM, 8 h).

As for QQRLAHLEDKLRLLAQARDEAQGA [LRRC45], the protein stability index (treatment: DMSO) came to 4.29 ± 0.28 and the protein stability index (treatment: MLN4924 1 uM, 8 h) came out at 4.37 ± 0.36. The corresponding values for QQRLQGQLCDVSIRVQGREFRAHR [ZBTB22] are 3.34 ± 0.42 and 3.81 ± 0.5. Turning to QRFGEALQDQEKAWGFPENATAPR [ELOA2], the protein stability index (treatment: DMSO) is 4.78 ± 0.23 and the protein stability index (treatment: MLN4924 1 uM, 8 h) amounted to 4.68 ± 0.46. Take QRHRDILQVIYWARDVFIITGVWV [GOSR1]: the protein stability index (treatment: DMSO) turned out to be 2.72 ± 0.72 and the protein stability index (treatment: MLN4924 1 uM, 8 h) came out at 2.25 ± 0.73. Taken in the same sequence, the figures for QRPADVPEPGRAGYPAPRDEGVLR [HAGHL] were 4.85 ± 0.32 and 4.84 ± 0.15. Taken in the same sequence, the figures for QRVEKDMKKAKEQLKIRKSNQIPT [FUNDC2] were 4.58 ± 0.32 and 4.56 ± 0.26. For QSAQIACSSPSVVASLPLDQSDEG [MAGEA10], the protein stability index reads like this: (treatment: DMSO) 5.5 ± 0.45; (treatment: MLN4924 1 uM, 8 h) 5.236 ± 0.029. For the sequence QSEERKRIDELIESGKEEGMKIDL [KMT5A], the protein stability index (treatment: DMSO) came out at 5.583 ± 0.004 and the protein stability index (treatment: MLN4924 1 uM, 8 h) is 5.5 ± 0.13. On to QSFGRLSLQPQQQQQRQRPPRPPP [N4BP2L1], for which the protein stability index (treatment: DMSO) is 4.64 ± 0.2 and the protein stability index (treatment: MLN4924 1 uM, 8 h) was 4.6 ± 0.32. As for QSLRDLGVKISEQQAEKILKSMDK [SLC25A25], the protein stability index by setting is: (treatment: DMSO) 4.12 ± 0.28; (treatment: MLN4924 1 uM, 8 h) 4.19 ± 0.35.

QTLLPAACLLQLAEIQEACCEFLK [KLHL20]: the protein stability index (treatment: DMSO) was found to be 2.21 ± 0.31 and the protein stability index (treatment: MLN4924 1 uM, 8 h) was 2.36 ± 0.15.

With QVGTMALWASQREKEVLRRERAVE [ZBED2], the protein stability index was 4.11 ± 0.26 (treatment: DMSO) and 4.31 ± 0.18 (treatment: MLN4924 1 uM, 8 h). Regarding QVLPDSESLPRSEIDEKVTDLVQF [MAGEA10], the protein stability index is, setting by setting: (treatment: DMSO) 5.03 ± 0.3; (treatment: MLN4924 1 uM, 8 h) 4.99 ± 0.35. QVNEINFENMSNDDAVRVLREIVH [DVL3]: the protein stability index by setting is: (treatment: DMSO) 3.01 ± 0.16; (treatment: MLN4924 1 uM, 8 h) 3.09 ± 0.37.

In turn, QWQDLMSIMEMQAMEVNTSASEIL [NFE2L1] came in with a protein stability index (treatment: DMSO) of 2.88 ± 0.45 and a protein stability index (treatment: MLN4924 1 uM, 8 h) of 2.86 ± 0.4.

On to RAGVQWKFAGSFYFAITVITTIGY [KCNK9], for which the protein stability index came out at 3.03 ± 0.064 (treatment: DMSO) and 3.11 ± 0.4 (treatment: MLN4924 1 uM, 8 h). Regarding RALSEYLAVFARCLAGCEGAHEQV [P3H4], the protein stability index was found to be 2.62 ± 0.86 (treatment: DMSO) and 2.89 ± 0.91 (treatment: MLN4924 1 uM, 8 h). On to RALVRQFGQQDWKFLASHFPNRTD [MYBL2], for which the protein stability index was 3.09 ± 0.41 (treatment: DMSO) and 2.93 ± 0.19 (treatment: MLN4924 1 uM, 8 h).

For the sequence RASGEHVTDEEIESLMKDGDKNND [TNNC2], the protein stability index (treatment: DMSO) came to 5.66 ± 0.12 and the protein stability index (treatment: MLN4924 1 uM, 8 h) worked out at 5.68 ± 0.2. Turning to RATSLGRPEEEEDELAHRCSSFMA [CPOX], the protein stability index turned out to be 4.68 ± 0.33 (treatment: DMSO) and 4.71 ± 0.17 (treatment: MLN4924 1 uM, 8 h). The corresponding values for RAWEVDWFSLASVIFLLLFAPFIV [DHCR7] are 2.43 ± 0.45 and 2.65 ± 0.57. For the sequence RCVSFQARFAEKEELMLVHSLEYI [HDAC6], the protein stability index (treatment: MLN4924 1 uM, 8 h) turned out to be 2.19 ± 0.3. As to RDLLGALKHWRRAMELRHQGGEYL [FEM1A], the protein stability index amounted to 2.46 ± 0.2 (treatment: DMSO) and 2.5 ± 0.45 (treatment: MLN4924 1 uM, 8 h). For the sequence RDPFECNMCGYHSQDRYEFSSHIT [IKZF1], the protein stability index reads like this: (treatment: DMSO) 2.33 ± 0.4; (treatment: MLN4924 1 uM, 8 h) 2.33 ± 0.59. RELGRLRQQVTNHGRGTEVLLEEP [ZNF263]: the protein stability index is, setting by setting: (treatment: DMSO) 4.7 ± 0.39; (treatment: MLN4924 1 uM, 8 h) 4.58 ± 0.33.

Sequence RESGAEPQEAVLQQLHQLPRGRLD [LRRC45] had a protein stability index (treatment: DMSO) of 5.06 ± 0.3 and a protein stability index (treatment: MLN4924 1 uM, 8 h) of 5.16 ± 0.25. With RFPGRKQPGVHEEPVLKKWPKLKS [C22orf31], the protein stability index reads like this: (treatment: DMSO) 3.72 ± 0.49; (treatment: MLN4924 1 uM, 8 h) 3.57 ± 0.15.

RGAQGILLVYDITNRWSFDGIDRW [RAB40C]: the protein stability index is, setting by setting: (treatment: DMSO) 2.93 ± 0.91; (treatment: MLN4924 1 uM, 8 h) 2.79 ± 0.42.

On to RGEVPWSPELGRPHDRSQGDWAPP [ZNF263], for which the protein stability index is, setting by setting: (treatment: DMSO) 4 ± 0.19; (treatment: MLN4924 1 uM, 8 h) 4.12 ± 0.35. For the sequence RIGKRPDLLTFVQNLCKGLSQPTT [NEUROD6], the protein stability index by setting is: (treatment: DMSO) 2.3 ± 0.22; (treatment: MLN4924 1 uM, 8 h) 2.17 ± 0.083. Turning to RILWKKIQENQRNLYEEGRTAFLW [TRIM43], the protein stability index runs as follows: (treatment: DMSO) 2.08 ± 0.36; (treatment: MLN4924 1 uM, 8 h) 2.31 ± 0.28. Sequence RKEGIVKLKPHEEPLRSEILSGKF [PTPN9] returned a protein stability index (treatment: DMSO) of 4.16 ± 0.13 and a protein stability index (treatment: MLN4924 1 uM, 8 h) of 4.08 ± 0.14.
